The values below are quoted from earlier work in article PMC8967867.

The Kd is the equilibrium constant for the complex coming apart.

The target of the data set is NCOA3 CID (Homo sapiens) (UniProt Q9Y6Q9).
Sequence of NCOA3 CID (Homo sapiens) (Q9Y6Q9 1023-1093): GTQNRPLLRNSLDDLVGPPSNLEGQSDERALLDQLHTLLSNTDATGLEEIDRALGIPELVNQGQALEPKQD

Sequence of CBP NCBD (Q92793 2058-2116): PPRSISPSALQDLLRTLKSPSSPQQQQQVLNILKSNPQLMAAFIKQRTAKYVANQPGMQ

Consider CBP NCBD (from UniProt Q92793), for which the Kd was 0.2 µM.
